Data taken from patent US20180362631A1 (Eli Lilly, published 2018).
Changes are numbered by the printed parent chain. Values belong to the binder of their own block, whether it stands above or below them.

Legend:
human CXCL8 (IL-8) [1] = molecular target: T1, human CXCL8 (IL-8) (human, UniProt P10145 28-99); assay: SPR (Biacore 2000), antibody captured on Protein A, CXCL8 variant as analyte, 25 C
T1 construct: also called human IL-8; CXCL8 (72)
T1 sequence: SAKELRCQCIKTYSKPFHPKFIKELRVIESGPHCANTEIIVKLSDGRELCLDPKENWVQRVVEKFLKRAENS
Procedure: (§1) Binding kinetics are tested on a Biacore 2000 instrument with Biacore 2000 Evaluation Software Version 4.1 as described above.
(§2) The on-rate (kₒₙ) and off-rate (koff) for each ligand are evaluated using a “1:1 (mass transfer) Binding” binding model. The affinity (KD) is calculated from the binding kinetics according to the relationship: KD=koff/kₒₙ.

[2] = molecular target: human CXCL8 point mutant I40A (human, UniProt P10145 28-99, limits assumed); assay: as above
Procedure: as §1, §2

[3] = molecular target: human CXCL8 point mutant A35P (human, UniProt P10145 28-99, limits assumed); assay: as above
Procedure: as §1, §2

[4] = molecular target: human CXCL8 point mutant I10A (human, UniProt P10145 28-99, limits assumed); assay: as above
Procedure: as §1, §2

[5] = molecular target: T2, human CXCL8 point mutant L49A (human, UniProt P10145 28-99, limits assumed); assay: as above
Procedure: as §1, §2

[6] = molecular target: human CXCL8 point mutant R6A (human, UniProt P10145 28-99, limits assumed); assay: SPR (Biacore 2000), antibody captured on Protein A
human CXCL6 (GCP-2) = molecular target: T3, human CXCL6 (GCP-2) (human, UniProt P80162 40-114); assay: SPR (Biacore 2000), antibody captured on Protein A, chemokine as analyte, 25 C
T3 construct: also called human GCP-2
T3 sequence: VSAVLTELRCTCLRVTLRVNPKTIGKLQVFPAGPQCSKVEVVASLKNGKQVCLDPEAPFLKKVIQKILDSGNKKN
Procedure: (§3) Biacore 2000 instrument and Biacore 2000 Evaluation Software Version 4.1 are used for surface plasmon resonance analysis. A […] chip is prepared using manufacturer's EDC/NHS amine coupling method. Briefly, the surfaces of all four flow cells are activated by injecting a 1:1 mixture of EDC/NHS for 7 minutes at 10 μL/min. Protein A is diluted to 100 μg/mL in 10 mM acetate, pH 4.5 buffer, and immobilized to achieve approximately 10,000 RU onto all 4 flow cells by 7-minute injection at a flow rate of 10 μL/minute. Unreacted sites are blocked with a 7-minute injection of ethanolamine at 10 μL/minute. Two injections of glycine (pH 1.5) for 30 seconds at 10 μL/minute are used to remove any non-covalently associated protein. Running buffer is HBS-EP+.
(§4) Antibody 1 or Antibody 2 is diluted to 2 μg/mL in running buffer, and approximately 400-600 RU is captured in flow cell (Fc). Ligands are diluted from 100 μg/mL to 50 nM in running buffer and then two-fold serially diluted in running buffer to 3.125 nM. Duplicate injections of each ligand concentration are injected at 100 μL/min for 150 seconds followed by a dissociation phase. The dissociation phase is 1800 seconds for all ligands. Regeneration is performed by injecting 10 mM glycine (pH 1.5) for 60 seconds at […] over all flow cells. Reference-subtracted data is collected as Fc2-Fc1, Fc3-Fc1, and Fc4-Fc1. The measurements are obtained at 25° C. The on-rate (kₒₙ) and off-rate (koff) for each ligand are evaluated using a “1:1 (mass transfer) Binding” binding model. The affinity […] is calculated from the binding kinetics according to the relationship: KD=koff/kₒₙ.

human CXCL8 (IL-8) [7] = molecular target: T1, human CXCL8 (IL-8); assay: as above
Procedure: as §3, §4

human CXCL7 (NAP-2) = molecular target: T4, human CXCL7 (NAP-2) (human, UniProt P02775 59-128); assay: as above
T4 construct: also called human NAP-2
T4 sequence: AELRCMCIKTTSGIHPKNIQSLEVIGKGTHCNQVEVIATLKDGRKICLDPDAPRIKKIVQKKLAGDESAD
Procedure: as §3, §4

human CXCL2 (Gro beta) = molecular target: T5, human CXCL2 (Gro beta) (human, UniProt P19875 35-107); assay: as above
T5 construct: also called human Gro-beta
T5 sequence: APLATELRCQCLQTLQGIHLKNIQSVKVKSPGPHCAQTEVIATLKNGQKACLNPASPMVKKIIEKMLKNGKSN
Procedure: as §3, §4

human CXCL1 (Gro alpha) [8] = molecular target: T6, human CXCL1 (Gro alpha) (human, UniProt P09341 35-107); assay: as above
T6 construct: also called human Gro-alpha
T6 sequence: T5 sequence with P2S, L3V, L20P, K27N, Q48R, M58I, K68N, N69S, G70D
Procedure: as §3, §4

human CXCL5 (ENA-78) = molecular target: T7, human CXCL5 (ENA-78) (human, UniProt P42830 41-114); assay: as above
T7 construct: also called human ENA-78
T7 sequence: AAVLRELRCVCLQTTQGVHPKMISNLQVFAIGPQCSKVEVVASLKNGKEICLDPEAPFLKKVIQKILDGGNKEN
Procedure: as §3, §4

human CXCL3 (Gro gamma) = molecular target: T8, human CXCL3 (Gro gamma) (human, UniProt P19876 35-107); assay: as above
T8 construct: also called human Gro-gamma
T8 sequence: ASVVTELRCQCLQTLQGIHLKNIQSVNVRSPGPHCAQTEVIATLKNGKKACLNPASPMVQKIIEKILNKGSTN
Procedure: as §3, §4

human CXCL8 (IL-8) [9] = molecular target: T1, human CXCL8 (IL-8); assay: cell-based or functional assay
[10] = molecular target: T2, human CXCL8 point mutant L49A; assay: cell-based or functional assay
human CXCL8 (IL-8) [11] = molecular target: T1, human CXCL8 (IL-8); assay: cell-based or functional assay; remark: listed apart in the source
human CXCL1 (Gro alpha) [12] = molecular target: T6, human CXCL1 (Gro alpha); assay: cell-based or functional assay

- Kd (human CXCL8 (IL-8) [1]): 0.236 nM
- koff (human CXCL8 (IL-8) [1]): 0.000441 s⁻¹
- kon (human CXCL8 (IL-8) [1]): 3.03e+06 M⁻¹ s⁻¹
- Kd [2]: 27.1 nM
- koff [2]: 0.000424 s⁻¹
- kon [2]: 16100 M⁻¹ s⁻¹
- Kd [3]: 4.74 nM
- koff [3]: 0.00497 s⁻¹
- kon [3]: 1.06e+06 M⁻¹ s⁻¹
- Kd [4]: 1.26 nM
- koff [4]: 0.000344 s⁻¹
- kon [4]: 277000 M⁻¹ s⁻¹
- Kd [5]: 3.83 nM
- koff [5]: 0.000544 s⁻¹
- kon [5]: 143000 M⁻¹ s⁻¹
- binding result [6]: no binding
- Kd (human CXCL6 (GCP-2)): 0.818 nM
- koff (human CXCL6 (GCP-2)): 0.000578 s⁻¹
- kon (human CXCL6 (GCP-2)): 707000 M⁻¹ s⁻¹
- Kd (human CXCL8 (IL-8) [7]): 0.384 nM
- koff (human CXCL8 (IL-8) [7]): 0.00013 s⁻¹
- kon (human CXCL8 (IL-8) [7]): 339000 M⁻¹ s⁻¹
- Kd (human CXCL7 (NAP-2)): 0.181 nM
- koff (human CXCL7 (NAP-2)): 0.000161 s⁻¹
- kon (human CXCL7 (NAP-2)): 900000 M⁻¹ s⁻¹
- Kd (human CXCL2 (Gro beta)): 0.171 nM
- koff (human CXCL2 (Gro beta)): 0.000131 s⁻¹
- kon (human CXCL2 (Gro beta)): 773000 M⁻¹ s⁻¹
- Kd (human CXCL1 (Gro alpha) [8]): 0.113 nM
- koff (human CXCL1 (Gro alpha) [8]): 0.000105 s⁻¹
- kon (human CXCL1 (Gro alpha) [8]): 930000 M⁻¹ s⁻¹
- Kd (human CXCL5 (ENA-78)): 0.226 nM
- koff (human CXCL5 (ENA-78)): 0.000122 s⁻¹
- kon (human CXCL5 (ENA-78)): 543000 M⁻¹ s⁻¹
- Kd (human CXCL3 (Gro gamma)): 0.172 nM
- koff (human CXCL3 (Gro gamma)): 0.000123 s⁻¹
- kon (human CXCL3 (Gro gamma)): 716000 M⁻¹ s⁻¹
- IC50 (U937 FLIPR neutralization) (human CXCL8 (IL-8) [9]): 0.9 µg/mL
- IC50 (U937 FLIPR neutralization) [10]: 1.5 µg/mL
- IC50, chemotaxis of primary human neutrophils, CXCL8 at 5 nM (human CXCL8 (IL-8) [11]): 26.4 nM
- IC50, chemotaxis of primary human neutrophils, CXCL8 at 10 nM (human CXCL8 (IL-8) [11]): 43.7 nM
- IC50, chemotaxis of primary human neutrophils, CXCL1 at 5 nM (human CXCL1 (Gro alpha) [12]): 18.5 nM
- IC50, chemotaxis of primary human neutrophils, CXCL1 at 20 nM (human CXCL1 (Gro alpha) [12]): 40.3 nM
B1: Antibody 1 (antibody, human IgG4 S228P, kappa, V domains shown)
VH: QVQLVQSGAEVKKPGASVKVSCKASGYEFTSYWIHWVRQAPGQGLEWMGNISPNSGSANYNEKFKSRVTMTRDTSTSTVYMELSSLRSEDTAVYYCAREGPYSYYPSREYYGSDLWGQGTLVTVSS
VL: EIVLTQSPATLSLSPGERATLSCRASQSISNNLHWYQQKPGQAPRLLIYYTSRSVSGIPARFSGSGSGTDFTLTISSLEPEDFAVYYCGQNNEWPEVFGGGTKVEIKR
notes: Full-length IgG4 antibody expressed in NS0 cells

- Kd (human CXCL6 (GCP-2)): 0.849 nM
- koff (human CXCL6 (GCP-2)): 0.000611 s⁻¹
- kon (human CXCL6 (GCP-2)): 719000 M⁻¹ s⁻¹
- Kd (human CXCL8 (IL-8) [7]): 0.473 nM
- koff (human CXCL8 (IL-8) [7]): 0.000124 s⁻¹
- kon (human CXCL8 (IL-8) [7]): 261000 M⁻¹ s⁻¹
- Kd (human CXCL7 (NAP-2)): 0.418 nM
- koff (human CXCL7 (NAP-2)): 0.000218 s⁻¹
- kon (human CXCL7 (NAP-2)): 521000 M⁻¹ s⁻¹
- Kd (human CXCL2 (Gro beta)): 0.18 nM
- koff (human CXCL2 (Gro beta)): 2.05e-05 s⁻¹
- kon (human CXCL2 (Gro beta)): 114000 M⁻¹ s⁻¹
- Kd (human CXCL1 (Gro alpha) [8]): 0.243 nM
- koff (human CXCL1 (Gro alpha) [8]): 0.000153 s⁻¹
- kon (human CXCL1 (Gro alpha) [8]): 628000 M⁻¹ s⁻¹
- Kd (human CXCL5 (ENA-78)): 0.354 nM
- koff (human CXCL5 (ENA-78)): 0.000151 s⁻¹
- kon (human CXCL5 (ENA-78)): 427000 M⁻¹ s⁻¹
- Kd (human CXCL3 (Gro gamma)): 0.379 nM
- koff (human CXCL3 (Gro gamma)): 0.000176 s⁻¹
- kon (human CXCL3 (Gro gamma)): 465000 M⁻¹ s⁻¹
B2: Antibody 2 (antibody, human IgG4 S228P, kappa, V domains shown)
VH: B1 VH with E109Q
VL: B1 VL
notes: as for B1
